The target of assay [1] is T1, PP4c C-terminal peptide meL307, ac-PSKKPVADYFL-CH3 (α-carboxymethylated) (human, SMILES …).
T1 construct: also called mePP4c; PP4 Me
T1 peptide: Ac-PSKKPVADYFL-OMe
The experiment in a line: SPR (Biacore T200), antibody captured, peptide 50-800 nM as analyte, steady state analysis, 25 °C; SPR steady state; antibody captured at 50 µg/ml, PP4 Me peptide 50-800 nM as analyte. Here is the method: The differential affinity of anti-carboxymethylated PP2Ac antibodies, 7C10-C5 and 2A10, to carboxymethylated PP2A catalytic subunit versus noncarboxymethylated PP2A catalytic subunit was determined by surface plasmon resonance (SPR) on a Biacore T200 (GE Healthcare) at the Core Facility Biomolecular & Cellular Analysis (University of Natural Resources and Life Sciences Vienna BOKU). The affinity of 7C10-C5 for carboxymethylated and noncarboxymethylated catalytic subunit of PP4 (PP4c), a PP2A-related phosphatase, was also determined.
Series S Sensor Chip CM5 (GE Healthcare, 10296958) Flow cells (e.g. Flow cells 3 and 4 for the data shown in Table 5 and FIG. 32) were coated with 30 μg/mL anti-mouse IgG antibody (in immobilization buffer) using the mouse antibody capture kit (GE Healthcare, BR-1008-38, Lot 10294578) via amine coupling according to the manufacturer's protocol (i.e. https://www.cytivalifesciences. com/en/us/shop/protein-analysis/spr-lab el-free-analysis/capture-reagents/mouse-antibody-capture-kit-p-05986). The immobilisation levels obtained were 11620.2 RU (Flow cell 1), 10836.5 RU (Flow cell 2), 11605.9 RU (Flow cell 3) and 11333.9 RU (Flow cell 4), and thus were within the specifications. […]
SPR experiments were performed with the BiacoreT200 instrument (Cytiva). […] The sensorgrams obtained were analyzed with BiacoreT200 Evaluation Software (version 3.1).
A general note: SPR reads the build-up and loss of mass on a sensor chip optically.

The target of assay [2] is α-carboxymethylated PP2Ac (Homo sapiens, UniProt P67775). In words: IHC tissue microarray analysis of localized and metastatic prostate cancer tissue, Allred scoring. More on the design: IHC tissue microarray analyses of prostate cancer tissue with the 7C10-C5 antibody; from tissue; host or cells: localized and metastatic prostate cancer tissue (tissue microarray, FFPE). The procedure: Immunohistochemical staining was performed on the DAKO Autostainer (DAKO, Carpinteria, Calif.) using Envision+ or liquid streptavidin-biotin and diaminobenzadine (DAB) as the chromogen. De-paraffinized sections were labeled with mouse monoclonal antibody 7C10-C5 (1:200) overnight at 4 C. Microwave 10 mM Tris HCl, pH9 containing 1 mM EDTA epitope retrieval was used prior to staining. Appropriate negative (no primary antibody) and positive controls (pancreas) were stained in parallel with each set of slides studied. Peptide competition studies were performed using 2 peptides ([…]*) (SEQ ID NO:115) differing in the methylation status at position L (marked with a *); FIG. 13E: Peptides were incubated at ambient temperature for 60 mins at 10-1000× molar ratios before being applied to the slide. FIG. 13F: Before being stained, slides were incubated in freshly made 200 mM NaOH for 10 mins at 4° C. and then neutralized by several washes in TBST.
Sequence of α-carboxymethylated PP2Ac (P67775 whole entry): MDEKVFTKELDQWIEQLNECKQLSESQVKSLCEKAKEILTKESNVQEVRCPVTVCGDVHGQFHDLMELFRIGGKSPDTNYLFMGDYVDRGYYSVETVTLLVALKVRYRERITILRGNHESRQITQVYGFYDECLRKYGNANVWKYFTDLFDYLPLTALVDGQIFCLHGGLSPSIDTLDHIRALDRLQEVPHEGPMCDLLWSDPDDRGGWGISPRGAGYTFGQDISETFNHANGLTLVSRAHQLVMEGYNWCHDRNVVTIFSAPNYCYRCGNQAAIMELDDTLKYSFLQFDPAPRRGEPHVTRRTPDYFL
Stained slides were scanned using an APERIO AT2 (Leica) and the digital images imported into QuPath (Bankhead et al., 2017). TMA cores were analyzed for percentage of cells staining and intensity. In FIGS. 13E and F, higher visibility of the dark cell nuclei indicates weaker α-carboxymethylated PP2Ac staining.
The assembly of trimeric tumor-suppressive PP2A holoenzymes is promoted/facilitated by PP2Ac α-carboxymethylation. The PP2Ac α-carboxymethylation levels correlate positively with the levels of methylation-sensitive trimeric PP2A holoenzymes. A truly specific anti-methyl-PP2Ac antibody (7C10-C5) can be used to determine the α-carboxymethylated PP2Ac levels in normal and disease tissue by IHC analyses of tissue microarrays of cancer, normal tissues and tissues obtained from other disease states including but not limited to heart disease, Alzheimers disease, and diabetes. The PP2A methylation status in disease tissue can be graded using the Allred scoring system that scores the proportion of cells that stain by IHC as well as the intensity of the IHC staining. […] Allied scoring is calculated the following way: […]

Setting [3] is: IHC, mean±standard deviation, 12 samples.

B1: 7C10-C5 monoclonal antibody (antibody, V domains shown)
VH: DVQLQESGPGLVKPSQSLSLTCSVTGYSITSGYYWNWIRQFPGNKLEWMGYISYDGSNNYNPSLKNRISITRDTSKNQFFLKLNSVTTEDTATYYCAGRFAYWGQGTLVTVSA
VL: DVLMTQTPLSLPVSLGDQASISCRSSQSIVHSNGNTYLEWYLQKPGQSPKLLIYKVSNRFSGVPDRFSGSGSGTDFTLKINRVEAEDLGVYYCFQGSHVPWTFGGGTKLEIK
notes: Used as hybridoma culture supernatant (ELISA, Western blot, IHC) or at 50 µg/mL (SPR); also called 7C10 X63; clone 7C10-C5
With B1, binding in assay [1] was characterised by a dissociation constant (Kd) of 132 nM.

B2: 7C10-C5: α-carboxymethylation specific mouse monoclonal IgG1 antibody from single clone hybridoma 7C10-C5 (DSM ACC3350) (antibody)
heavy: MYRMQLLSCIALSLALVTNSDVQLQESGPGLVKPSQSLSLTCSVTGYSITSGYYWNWIRQFPGNKLEWMGYISYDGSNNYNPSLKNRISITRDTSKNQFFLKLNSVTTEDTATYYCAGRFAYWGQGTLVTVSAAKTTAPSVYPLAPVCGDTTGSSVTLGCLVKGYFPEPVTLTWNSGSLSSGVHTFPAVLQSDLYTLSSSVTVTSSTWPSQSITCNVAHPASSTKVDKKIEPRGPTIKPCPPCKCPAPNLLGGPSVFIFPPKIKDVLMISLSPIVTCVVVDVSEDDPDVQISWFVNNVEVHTAQTQTHREDYNSTLRVVSALPIQHQDWMSGKEFKCKVNNKDLPAPIERTISKPKGSVRAPQVYVLPPPEEEMTKKQVTLTCMVTDFMPEDIYVEWTNNGKTELNYKNTEPVLDSDGSYFMYSKLRVEKKNWVERNSYSCSVVHEGLHNHHTTKSFSRTPGK
light: MDMRVPAQLLGLLLLWLSGARCDVLMTQTPLSLPVSLGDQASISCRSSQSIVHSNGNTYLEWYLQKPGQSPKLLIYKVSNRFSGVPDRFSGSGSGTDFTLKINRVEAEDLGVYYCFQGSHVPWTFGGGTKLEIKADAAPTVSIFPPSSEQLTSGGASVVCFLNNFYPKDINVKWKIDGSERQNGVLNSWTDQDSKDSTYSMSSTLTLTKDEYERHNSYTCEATHKTSTSPIVKSFNRNEC
modifications: Amino acid sequence of the recombinant 7C10-C5 heavy chain; Amino acid sequence of the recombinant 7C10-C5 light chain
For the molecule B2, in assay [2] (setting [3]), the “average Allred score, localized prostate cancer tissues” value stood at 2.2±2.3 and the “average Allred score, metastatic prostate cancer tissues” value was determined as 0.4±1.4. In assay [2] (tissue microarray, Allred score), the “discrimination between localized and metastatic prostate cancer by IHC staining” value was “significantly lower levels”.

Broadly, the Kd is the free concentration of one partner at which half of the binding sites on the other are occupied at equilibrium, for simple one-to-one binding. The low end stands for higher affinity, the high end for lower affinity.

(Values after patent publication US20230121197A1, “ANTIBODIES SPECIFICALLY BINDING THE CARBOXYMETHYLATED CATALYTIC SUBUNIT OF PROTEIN PHOSPHATASE 2A” (Medizinische Universität Wien, priority 2020, published 2023).)
